Source: patent US20240343810A1 (published 2024)
Values belong to the binder of their own block, whether it stands above or below them.

What was measured:
[1] = target: T1, mouse ICOS-mFc (Chimerigen) (mouse, UniProt Q9WVS0 21-141, limits assumed); assay: HTRF, mouse ICOS-mFc, competitor mouse B7-H2-Alexa 647, average
T1 construct: Bought; also called recombinant mouse ICOS protein; mICOS; not shown: mouse Fc of the bought fusion
T1 sequence: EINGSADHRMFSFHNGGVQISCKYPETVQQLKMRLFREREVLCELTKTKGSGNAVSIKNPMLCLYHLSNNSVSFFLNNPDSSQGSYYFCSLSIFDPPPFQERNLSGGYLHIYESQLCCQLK
Description: (§1) 5 μl of human ICOS-mFc (Chimerigen) at 20 nM (5 nM final) or 5 ul of mouse ICOS-mFc (Chimerigen) at 4 nM (1 nM final) were added to relevant assay wells. Plate was incubated for 1 hour (hr) at room temperature (RT).
(§2) After incubation, assay was read on Envision plate reader (Perkin Elmer) using a standard HTRF protocol. 620 nm and 665 nm channel values were exported to Microsoft Excel and % Delta-F and % Neutralisation calculations performed. Titration curves and IC50 values [M] were plotted using Graphpad (Prism). IC50 values were calculated by first transforming the data using equation X=Log(X). The transformed data was then fitted using nonlinear regression, using fitting algorithm, log (inhibitor) vs. response—variable slope (four parameters).

[2] = target: T1, mouse ICOS-mFc (Chimerigen); assay: HTRF, mouse ICOS-mFc, competitor mouse B7-H2-Alexa 647, n1
Description: as §1, §2

[3] = target: T2, human ICOS-mFc (Chimerigen) (human, UniProt Q9Y6W8 21-140); assay: HTRF, human ICOS-mFc, competitor human B7-H2-Alexa 647, n2
T2 construct: Bought; also called recombinant human ICOS protein; hICOS; not shown: mouse Fc of the bought fusion
T2 sequence: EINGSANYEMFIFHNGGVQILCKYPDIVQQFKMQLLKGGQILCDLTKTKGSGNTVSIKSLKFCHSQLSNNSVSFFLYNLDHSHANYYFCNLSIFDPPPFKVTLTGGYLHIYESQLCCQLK
Description: as §1, §2

[4] = target: T2, human ICOS-mFc (Chimerigen); assay: DELFIA ELISA on coated human ICOS-mFc, N=1
Description: (§3) Recombinant ICOS proteins, human ICOS-mFc or mouse ICOS-mFc (Chimerigen) were diluted in 1×PBS and added to Black Hi-bind plates (Griener) at 1 μg/ml, 50 μl/well. Recombinant PD-L1 proteins, human PD-L1-Flag-His or mouse-His were diluted in 1×PBS and added to Black Hi-bind plates (Griener) at 4 μg/ml, 50 μl/well. The plates were left overnight at 4° C. The next day plates were washed 3× with 300 μl/well of 1×PBS+0.1% Tween and blocked with 200 ul/well of 1×PBS+1% BSA blocking buffer for 1 hr at RT on a plate shaker. Plates were washed 3× with 300 μl/well of 1×PBS+0.1% Tween.
(§4) However, human-PD-L1 mAb² antibodies were diluted in 1×PBS+0.1% BSA buffer and diluted 1 in 2 from a starting working concentration of 0.066 μM over an 11 point titration. Titrated antibodies were added to the plates, 50 μl/well and left to incubate for 1 hr at R.T on a plate shaker. Plates were washed 3× with 300 μl/well of 1×PBS+0.1% Tween.
(§5) DELFIA® Eu-labelled Anti-human IgG (Perkin-Elmer) was diluted 1:500 in DELFIA Assay buffer (Perkin-Elmer) and added to the assay plate (50 μl/well), left to incubate for 1 hr at RT on a plate shaker. […] After incubation, assay was read on Envision plate reader (Perkin Elmer), Time-resolved fluorescence (TRF) was measured at 615 nm.

[5] = target: T1, mouse ICOS-mFc (Chimerigen); assay: DELFIA ELISA on coated mouse ICOS-mFc, N=1
Description: as §3, §4, §5

[6] = target: T3, human ICOS expressed on cells (human, UniProt Q9Y6W8 21-199); assay: Flow cytometry on CHO-S human ICOS cells, anti-human IgG AF647, N=2
T3 construct: also called CHO-S cells transfected with human ICOS; hICOS
T3 sequence: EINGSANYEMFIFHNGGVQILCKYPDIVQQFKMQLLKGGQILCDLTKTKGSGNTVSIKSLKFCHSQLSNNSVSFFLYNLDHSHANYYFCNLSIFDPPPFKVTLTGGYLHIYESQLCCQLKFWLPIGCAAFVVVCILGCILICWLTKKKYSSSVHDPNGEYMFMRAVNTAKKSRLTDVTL
Description: CHO—S cells transfected with either human ICOS or mouse ICOS were resuspended in FACS buffer (PBS+1% w/v BSA+0.1% w/v sodium azide) and transferred to a 96-well V-bottom plate (Greiner) at a density of 1×10⁵ cells per well. mAb and mAb² were titrated in FACS buffer, 1 in 3 dilution across 11 points from a starting working concentration of 400 nM. Plates were centrifuged at 300×g for 3 minutes, supernatant discarded and 50 μL mAb or mAb² solution were added to cells and incubated at 4° C. for 1 hour. Cells were washed with 150 μL of PBS and centrifuged at 300×g for 3 minutes, supernatant was discarded and cell pellet resuspended in 150 μL PBS added. This wash step was repeated twice. Bound mAb or mAb² was detected by addition of 50 μL of anti-human 647 (Jackson ImmunoResearch) diluted to 3 ug/ml in FACS buffer. Cells were incubated for 1 hour at 4° C. in the dark. Cells were washed with 150 μL of PBS and centrifuged at 300 g for 3 minutes, supernatant was discarded and cell pellet resuspended in 150 μL PBS added. This wash step was repeated twice. Cells were fixed with 25 μL 4% v/v paraformaldehyde, incubated for 20 minutes at 4° C., cells were pelleted by centrifugation at 300×g and the supernatant discarded. […] AlexaFluor 647 signal intensity (geometric mean) was measured by flow cytometry using a Beckman Coulter CytoFLEX instrument.

[7] = target: T2, human ICOS-mFc (Chimerigen); assay: DELFIA ELISA on coated human ICOS-mFc, mean
Description: as §3, §4, §5

IC50 [1]: 8.71 nM
IC50 [2]: 7.98 nM
IC50 [3]: 1.12 nM
EC50 [4]: 20 nM
EC50 [5]: 11.4 nM
EC50 [6]: 13.8 nM
EC50 [7]: 28.9 nM
B1: STIM001 (antibody, human IgG1, kappa)
heavy: not shown
light: DIVMTQSPLSLPVTPGEPASISCRSSQSLLHSNEYNYLDWYLQKPGQSPQLLIFLGSNRASGVPDRFSGSGSGTDFTLKITRVEAEDVGIYYCMQSLQTPLTFGGGTKVEIKRTVAAPSVFIFPPSDEQLKSGTASVVCLLNNFYPREAKVQWKVDNALQSGNSQESVTEQDSKDSTYSLSSTLTLSKADYEKHKVYACEVTHQGLSSPVTKSFNRGEC
notes: Anti-ICOS monospecific antibody, tested as human IgG1; also called STIM001 monoclonal IgG1 antibody

IC50 [1]: 0.37 nM
IC50 [2]: 0.87 nM
IC50 [3]: 0.45 nM
EC50 [4]: 0.488 nM
EC50 [5]: 0.416 nM
EC50 [6]: 4.89 nM
EC50 [7]: 0.751 nM
B2: STIM003 (antibody, human IgG1, kappa)
heavy: not shown
light: EIVLTQSPGTLSLSPGERATLSCRASQSVSRSYLAWYQQKRGQAPRLLIYGASSRATGIPDRFSGDGSGTDFTLSISRLEPEDFAVYYCHQYDMSPFTFGPGTKVDIKRTVAAPSVFIFPPSDEQLKSGTASVVCLLNNFYPREAKVQWKVDNALQSGNSQESVTEQDSKDSTYSLSSTLTLSKADYEKHKVYACEVTHQGLSSPVTKSFNRGEC
notes: Anti-ICOS monospecific antibody, tested as human IgG1; also called STIM003 monoclonal IgG1 antibody
